Where a chain is given by its changes, count along the chain named. Names may count otherwise. Values belong to the molecule of their own block, whether it stands above or below them.
Legend:
[1] = biological target: recombinant human FcRn (heterodimer of FcRn heavy chain and beta2-microglobulin) (human) (UniProt P55899); experiment: BLI (Octet), biotinylated human FcRn on streptavidin sensors, pH 6, 1:1 model
[2] = biological target: T1, recombinant human FcRn (heterodimer of FcRn heavy chain and beta2-microglobulin) (human, UniProt P55899 24-297; P61769 21-119, limits assumed, biotinylated for the Octet assay (site not stated)); experiment: as above
T1 construct: In-house recombinant heterodimeric FcRn; captured as biotinylated protein on streptavidin sensors for BLI; also called hFcRn; Fc neonatal receptor
Protocol: (§1) Octet binding analysis. […] Biotinylated FcRn at 1 μg/mL in PBS buffer (pH 7.4) or 100 mM MES buffer (pH 6.0), with 3 mg/mL bovine serum albumin, 0.05% (vol/vol) and Tween 20 (1× Kinetics Buffer; ForteBio), were captured on streptavidin biosensors (ForteBio). The loaded biosensors were washed with assay buffer to remove any unbound protein, followed by association and dissociation measurements with serial dilutions of the different Fc variants or Fc fusion constructs. Octet software (version 7.2) was used to calculate kinetic parameters (kₒₙ and koff) and apparent affinities (KD) from a nonlinear fit based on the 1:1 binding kinetic model of the data, with the equation

[3] = biological target: T1, recombinant human FcRn (heterodimer of …); experiment: BLI (Octet) on recombinant FcRn, pH 6 against neutral pH
Protocol: as §1

fold decrease from pH 6 binding to neutral pH binding [3]: ~50 fold | Kd [2]: 330 nM
B2: MFc3, the S354E point mutant of MFc1 (other)
chain: GPSVFLFPPKPKDTLYITREPEVTCVVVDVSQEDPEVQFNWYVDGVEVHNAKTKPREEQFNSTYRVVSVLTVLHQDWLNGKEYKCKVSNKGLPSSIEKTISKAKGQPREPQVYTFPPEQEEMTKNQVSLRCLVKGFYPSDIAVEWESNGQPENNYKTTKPVLDSDGSFRLESRLTVDKSRWQEGNVFSCSVMHEALHNHYTQKSLSLSL

fold decrease from pH 6 binding to neutral pH binding [3]: ~50 fold | Kd [2]: 5 nM
B3: MFc4 (T1-S354E), monomeric IgG4 Fc variant (other)
chain: GPSVFLFPPKPKDTLMISRTPEVTCVVVDVSQEDPEVQFNWYVDGVEVHNAKTKPREEQFNSTYRVVSVLTVLHQDWLNGKEYKCKVSNKGLPSSIEKTISKAKGQPREPQVYTFPPEQEEMTKNQVSLRCLVKGFYPSDIAVEWESNGQPENNYKTTKPVLDSDGSFRLESRLTVDKSRWQEGNVFSCSVMHEACSYHLCKSLSLSL
notes: Engineered IgG4 CH2-CH3 with the CH3 monomer set, S354E and the half-life mutation set around residues 432-438 in place of YTE

The remaining lines, values behind:

Molecule: MFc1 (C4), monomeric IgG4 Fc variant with YTE mutations (from UniProt P01861 111-327)
Kd [1]: 370 nM

B1: MFc2 (C4n), monomeric IgG4 Fc variant with no YTE mutations (other)
chain: B2 chain with Y16M, T18S, E20T, E118S
Kd [2]: 3560 nM

— patent US20240239898A1 (published 2024)
